Measurements reported in patent US20220356229A1 (published 2022).

B1: antibody 475 (antibody, V domains shown)
VH: QVQLVESGGGVVQPGRSLRLSCAASGFTFSSYAMHWVRQAPGKGLEWVTFISHEGSNKYYADSVKGRFTISRDNSKNTLYLQMNSLRAEDTAVYYCARTFEYSSSSATGDFDYWGQGTLVTVSS
VL: QSVLTQPPSVSGAPGQRVTISCTGSSSNIGAGYDVHWYQQLPGTAPKLLIYGNSNRPSGVPDRFSGSKSGTSASLAITGLQAEDEADYYCQSYDSSLSGVVFGGGTKLTVL
B2: antibody 476 (antibody, V domains shown)
VH: QVQLVQSGSELKKPGASVKVSCKASGYTFTSYAMNWVRQAPGQGLEWMGWINTNTGNPTYAQGFTGRFVFSLDTSVSTAYLQISSLKAEDTGVYYCARDHELPNSSSWFGHFEYWGQGTLVTVSS
VL: SYELTQPPSVSVSPGQTARITCSGDALPKQYAYWYQQKAGQAPVLVIYKDSERRSGIPERFSGSSSGTTVTLTISGVQAEDEADYYCQSADSSGTSVVFGGGTKLTVL
B3: antibody 452 (antibody, V domains shown)
VH: QVQLVESGGGLVKPGGSLRLSCAASGFTFSDYYLSWIRQAPGKGLEWVSYISSSGSNIYYADSVKGRFTISRDNAKNSLYLQMNSLRADDTAVFYCARAGRYCSGGSCRVEYFQHWGQGTLVTVSS
VL: SYELTQPPSVSVSPGQTARITCSGDALPKQYAYWYQQKPGQAPVLVIYKDNERPSGIPERFSGSSSGTTATLTISGVQAEDEADYYCQSADSSGTVVFGGGTKLTVL
B4: antibody 454 (antibody, V domains shown)
VH: QVQLVQSGAEVKKPGASLKVSCKASGYIFTGYYMHWVRQAPGQGLEWMGWISPNSGGTKYAQKFQGRVTMTRDTSISTAYMELSRLRSDDSAVYYCAREPYYDILTGYYTPRRYLDYWGQGTLVTVSS
VL: QSALTQPASVSGSPGQSITISCTGTSSDVGDYNYVSWYQQHPGKVPKLMIYDVSHRPSGVTNRFSGSKSGNTASLTISGLRAEDEADYYCSSYTSSSTYVFGTGTKVTVL
B5: antibody 477 (antibody, V domains shown)
VH: QVQLVESGGGVVQPGRSLRLSCAASGITFSSYAMHWVRQAPGKGLEWVAVISYDGSDKYHADSVKGRFAISRDNSKNTLYLQMNSLRAEDTAVYYCAKDKGIAVAGTGWIRPDPEYYFDYWGQGTLVTVSS
VL: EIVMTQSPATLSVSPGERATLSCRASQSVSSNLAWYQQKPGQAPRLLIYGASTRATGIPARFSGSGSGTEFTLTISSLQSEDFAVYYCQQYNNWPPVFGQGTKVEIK
B6: antibody 470 (antibody, V domains shown)
VH: not shown
VL: QSALTQPASVSGSPGQSITISCTGTSSDVGSYNLVSWYQQHPGKAPKLMIYEVSKRPSGVSNRFSGSKSGNTASLTISGLQAEDEADYYCCSYAGSSTLVFGGGTKLTVL
B7: antibody 485 (antibody, V domains shown)
VH: QVQLQESGPGLVKPSGTLSLTCAVSGASISSSNWWSWVRQPPGKGLEWIGEIYHSGSTNYNPSLKSRVTISVDKSKNQFSLKLSSVTAADTAVYYCARRSYYGSGSYYPFDYWGQGTLVTVSS
VL: QSALTQPASVSGSPGQSITISCTGTSSDVGSYNLVSWYQQHPGKAPKLMIYEGRKRPSGVSNRFSGSKSGNTASLTISGLQAEDEADYYCCSYAGSSTYVFGTGTKVTVL
B8: antibody 474 (antibody, V domains shown)
VH: EVQLVESGGGLVQPGGSLRLSCAASGFTFSSYWMHWVRQAPGKGLVWVSRINSDGSSTSYADSVKGRFTISRDNAKNTLYRQMNSLRAEDTAVYYCALGPLDIVGSYYYYGMDVWGQGTTVTVSS
VL: NFMLTQPHSVSESPGKTVTISCTGSSGSIASNYVQWYQQRPGSAPTTVIYEDNQRPSGVPDRFSGSIDSSSNSASLTISGLKTEDEADYYCQSYDSSNQDVVFGGGTKLTVL
B9: anti-coronavirus antibody 545 (antibody, V domains shown)
VH: QVQLVQSGSELKKPGASVKVSCKASGYTFTSYAMNWVRQAPGQGLEWMGWINTNTGNPTYAQGFTGRFVFSLDTSVSTAYLQISVLKAEDTGVYYCARDHELPNSSSWFGHFEYWGQGTLVTVSS
VL: SYELTQPPSVSVSPGQTARITCSGDALPKQYAYWYQQKAGQAPVLVIYKDSERRSGIPERFSGSSSGTTVTLTISGVQAEDEADYYCQSADSSGTSVVFGGGTKLTVL
B10: anti-coronavirus antibody 556 (antibody, V domains shown)
VH: QVQLVESGGGVVQPGRSLRLSCAASGFTFSSYAMHWVRQAPGKGLEWVAVISYDGSDKYYADSVKGRVTISRDNSKNTLYLQMNSLRVEDTAVFYCAKDDCSGGVCFPDYWGQGTLVTVSS
VL: QSALTQPASVSGSPGQSITISCTGTSSDVGGYNYVSWYQQHPGKAPKLMIYEVSIRPSGVSNRFSGSKSGNTASLTISGLQAEDEAAYYCSSYTSSSTLVFGGGTKLTVL
B11: anti-coronavirus antibody 544 (antibody, V domains shown)
VH: QVQLQQWGAGLLKPSETLSLTCAVYGGSFSGYYWSWIRQPPGKGLEWIGEINHSGSTNYNPSLKSRVTISVDTSKNQFSLKLSSVTAADTAVYYCARGFKWFGELLFGAQGTLVTVSS
VL: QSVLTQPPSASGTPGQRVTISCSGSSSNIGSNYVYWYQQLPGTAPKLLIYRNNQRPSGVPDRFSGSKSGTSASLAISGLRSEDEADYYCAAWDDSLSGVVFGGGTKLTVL
B12: anti-coronavirus antibody 546 (antibody, V domains shown)
VH: QVQLVESGGGVVQPGRSLRLSCAASGFTFSSYGMHWVRQAPGKGLEWVAVIWYDGSNKYYADSVKGRFTISRDNSKNTLYLQMNSLRAEDTAVYYCARNCGGDCVAGDGFDYWGQGTLVTVSS
VL: DIQMTQSPSSLSASVGDRVTITCRASQSISSYLNWYQQKPGKAPNLLIYAASSLQSGVPSRFSGSGSGTDFTLTISSLQPEDFATYYCQQSYSALTWTFGQGTKVEIK
B13: anti-coronavirus antibody 548 (antibody, V domains shown)
VH: QVQLVESGGGVVQPGRSLRLSCAASGFTFSSYAMHWVRQAPGKGLEWVAVISYDGSNKYYADSVKGRFTISRDNSKNTLYLQMNNLRAEDTAVYYCAKSGSGSYLSAFDIWGQGTMVTVSS
VL: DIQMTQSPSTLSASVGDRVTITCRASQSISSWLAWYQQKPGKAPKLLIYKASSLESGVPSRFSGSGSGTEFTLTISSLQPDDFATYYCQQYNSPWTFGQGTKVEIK
B14: anti-SARS-CoV-2 antibody 970 (antibody, V domains shown)
VH: EVQLVESGGGLVQPGGSLRLSCAASGFTFSSYWMSWVRQAPGKGLEWVANINKDGSEKYYVDSVKGRFTISRDNAKNSLYLQMNSLRAEDTAVYFCARDYRYFDWLLSQIDLEIDYFDYWGQGTLVTVSS
VL: not shown
B15: anti-SARS-CoV-2 antibody 1037 (antibody, V domains shown)
VH: QITLKESGPTLVKPTQTLTLTCTFSGFSLSTSGVGVGWIRQPPGKALEWLALIYWDDDKRYSPSLKSRLTITKDTSKNQVVLTMTNMDPVDTATYYCAHHTITRINDYWGQGTLVTVSS
VL: QSALTQPASVSGSPGQSITISCTATSSDVGAYNYVSWYQQHPGKAPKLMIYDVSKRPSGVSNRFSGSKSGNTASLTISGLQAEDEADYYCSSYTSSSTVFGGGTKLTVLG
B16: anti-SARS-CoV-2 antibody 923 (antibody, V domains shown)
VH: EVQLVESGGGVVRPGGSLRLSCAASGFIFDDYDMTWVRQAPGKGLEWVSGISWNGGNTGYADSVKGRFTISRDNAKNSLYLQMNSLRAEDTALYHCAVIMSPIPRYSGYDWAGGAFDIWGQGTMVTVSS
VL: SSELTQDPAVSVALGQTVRITCQGDSLRSYYASWYQQKPGQVPILVIYDKNNRPSGIPDRFSGSSSGNTASLTITGAQAEDEADYYCNSRDSSGNAVVFGGGTKLTVLG
B17: anti-SARS-CoV-2 antibody 1585 (antibody, V domains shown)
VH: QVQLVESGGGVVQPGRSLRLSCAASGFTFSRFTLHWVRQAPGKGLEWVAVISYDGSNKYYADSVKGRFTISRDNSKSTLYLQMNSLRAEDTGVYYCARDPSTVTGYFDYWGQGTLVTVSS
VL: SYVLTQPPSVSVAPGKTAKISCGGDSIGSKSVHWYQQKPGQAPVLVIYYDNDRPSGIPERFSGSNSGNTATLTISRVEAGDEADYYCQVWDIGVVFGGGTKLTVLG
B18: mAb 1495 (antibody, V domains shown)
VH: QVQLVESGGGVVQPGRSLRLSCTASGFTFSSYAMHWVRQAPGKGLEWVAVISYDGNNKYYGDSVKGRFTISRDNSKNTLYLQMNSLRAEDTAVYYCAKGADTPHYSGYHFLSVGYYFYGMDVWGQGTTVTVSS
VL: DIQMTQSPSSLSASVGDRVTITCRASQSISYYLNWYQQKPGKAPQLLIYAASSLQSGVPSRFSGSRSGTDFTLTISSLQPEDFATYYCQQSYSTPFTFGPGTKVDIKR
notes: human IgG1
B19: mAb 1444 (antibody, V domains shown)
VH: QVQLVQSGAEVKKPGASVKVSCKASGYTFTAYYMHWVRQAPGQGLEWMGWINPNSDDTNYAQKFQGRVTMTRDTSISTAYMELSRLRSDDTAVYYCAREEGVFTIGDRYFDLWGRGTLVSVSS
VL: QTVVTQEPSFSVSPGGTVTLTCGLSSGSVSTSYYPSWYQQTPGQAPRTLIYNTNTRSSGVPDRFSGSILGNKAALTITGAQADDESDYYCVLYMGSGIWVFGGGTKLTVLG
notes: human IgG1
B20: mAb 1538 (antibody, V domains shown)
VH: EVQLLESGGGLVQPGGSLRLSCAASGFTFSSYAMSWVRQAPGKGLEWVSGISDSGGSTYYADYVKGRFTISRDNSKDTLYLQMNSLRAEDTAVYYCAKDRGNEYALTHYYYYAMDVWGQGTTVTVSS
VL: DIQMTQSPSSLSASVGDRVTITCRASQSISSYLNWYQQKPGKAPKLLIYAAYSLQSGVPSRFSGGGSGTDFTLTISSLQPEDFATYFCQQSYSTPITFGQGTRLEIKR
notes: human IgG1
B21: mAb 1585 (antibody, V domains shown)
VH: QVQLVESGGGVVQPGRSLRLSCAASGFTFSRFTLHWVRQAPGKGLEWVAVISYDGSNKYYADSVKGRFTISRDNSKSTLYLQMNSLRAEDTGVYYCARDPSTVTGYFDYWGQGTLVTVSS
VL: SYVLTQPPSVSVAPGKTAKISCGGDSIGSKSVHWYQQKPGQAPVLVIYYDNDRPSGIPERFSGSNSGNTATLTISRVEAGDEADYYCQVWDIGVVFGGGTKLTVLG
notes: human IgG1

These binders were tested against SARS-CoV Spike protein (SARS-CoV, UniProt P59594 14-1190) (assay: not given).

Binder	bead binding signal (fold over isotype control)
B1	1.18
B2	1.04
B3	1.09
B4	1.1
B5	1.3
B6	1.09
B7	1.12
B8	1.1

Biological target: SARS-CoV Spike protein (SARS-CoV, UniProt P59594 14-1190)
Experiment: not given
Remark: another data set of the same source

Binder	binding signal (fold over isotype control)
B9	1.13
B10	1.09
B11	1.05
B12	1.18
B13	18.1

What follows are binders tested against SARS-CoV-2 full length Spike protein, wild type, expressed on CHO cells (SARS-CoV-2, UniProt P0DTC2 14-1273) (assay: not given).

Binder	median fluorescence intensity, fold over isotype control [fold over isotype]
B14	20.6
B15	83
B16	59
B17	9.55

What follows are binders tested against SARS-CoV full length Spike protein, wild type, expressed on CHO cells (SARS-CoV, UniProt P59594 14-1255) (assay: not given).

Binder	median fluorescence intensity, fold over isotype control [fold over isotype]
B14	124
B15	23.1
B16	118
B17	19.9

The binders below were run against SARS-CoV-2 Spike protein (SARS-CoV-2, UniProt P0DTC2 14-1208) (assay: HT-SPR (Carterra LSA), mAb coupled to chip, Spike in solution, 1:1 Langmuir fit).

Binder	Kd [nM]	koff [s⁻¹]	kon [M⁻¹ s⁻¹]
B18	0.0972	1.01e-05	103000
B19	≤ 0.0221	≤ 1e-05	453000
B20	≤ 0.0754	≤ 1e-05	133000
B21	≤ 0.0171	≤ 1e-05	586000
